Results on one substance are retold here after paper PMC8423902.

The target in the experiment is trimeric SARS-CoV-2 ectodomain (S 6P trimer, residues 16-1206) (SARS-CoV-2) (UniProt P0DTC2). Description: cryo-EM structure.

Regarding “trimeric SARS-CoV-2 ectodomain (S 6P trimer, residues 16-1206) (from UniProt P0DTC2 16-1206)”, the stoichiometry N was 3.

What is called stoichiometry N is a count of units in the complex or per binding partner.
